Assays:
Experiment in all cases: BLI; BLItz (ForteBio); biotinylated Fab loaded on streptavidin biosensors (rehydrated in PBS with 0.1% BSA); lysozymes passed on and off at a range of concentrations; global fits of kinetics (BlitzPro 1.2.1.3)
[1] = target: HyHEL10 Fab
[2] = target: T1, Pekin duck egg lysozyme isoform I (Anas platyrhynchos, Pekin duck, …, strain); settings: both partners purified
T1 construct: Allelic isoform I of C-type lysozyme of Pekin duck (Anas platyrhynchos), 129 positions; Asp66 and Asn103; First of three peaks eluted from CM resin; Observed intact mass 14391.88 Da; also called DEL-I; DL-1 (Kondo); source: purified from Pekin duck egg white (CM ion exchange, gel filtration)
T1 chain: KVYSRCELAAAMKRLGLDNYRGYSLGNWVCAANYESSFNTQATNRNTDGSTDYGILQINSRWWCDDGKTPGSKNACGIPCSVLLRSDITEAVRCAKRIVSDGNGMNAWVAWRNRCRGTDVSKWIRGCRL

[3] = target: T2, Pekin duck egg lysozyme isoform II (Anas platyrhynchos, Pekin duck, …, UniProt P00705, strain); settings: both partners purified
T2 construct: Isoform II of C-type lysozyme of Pekin duck (Anas platyrhynchos), 129 positions; entry P00705 (Kondo DL-2) differs at residues 66 and 103; Second of three peaks eluted from CM resin; Observed intact mass 14460.98 Da; No crystal structure; also called DEL-II; DL-2 (Kondo); source: purified from Pekin duck egg white (CM ion exchange, gel filtration)

“Pekin duck egg lysozyme isoform III (enzyme)” gave a Kd [1] of over 1 µM.

B1: HyHEL10 Fab (Fab, V domains shown)
VH: DVQLQESGPSLVKPSQTLSLTCSVTGDSITSDYWSWIRKFPGNRLEYMGYVSYSGSTYYNPSLKSRISITRDTSKNQYYLDLNSVTTEDTATYYCANWDGDYWGQGTLVTVSA
VL: DIVLTQSPATLSVTPGNSVSLSCRASQSIGNNLHWYQQKSHESPRLLIKYASQSISGIPSRFSGSGSGTDFTLSINSVETEDFGMYFCQQSNSWPYTFGGGTKLEIK
notes: HyHEL10 Fab heavy chain; HyHEL10 kappa light chain; Cloned into pCEP4; also called HyHEL10 Fab arm; source: Expi293, transiently expressed, purified from supernatant (HisTrap FF Crude)
With B1 the Kd [2] was 0.04 µM and the Kd [3] was 0.034 µM.

Reference: publication PMC5683014 (Acta Crystallographica. Section D, Structural Biology, 2017)
